Stoichiometry N data for one substance are collected here from article PMC9062432.

This experiment addresses AphC, extradiol dioxygenase from Rhodococcus jostii RHA1 (Rhodococcus jostii RHA1). Nature of the experiment: crystal structure.

In the case of “AphC, extradiol dioxygenase from Rhodococcus jostii RHA1 (enzyme)”, the stoichiometry N came out at 4.

Broadly, the stoichiometry N is the number of molecules, sites or subunits per partner or assembly.
